Molecular target: VEGF165 (UniProt P15692)
Experiment: cell-based or functional assay

Sequence of VEGF165 (P15692 other isoform, or with tags, fused parts or gaps limits assumed): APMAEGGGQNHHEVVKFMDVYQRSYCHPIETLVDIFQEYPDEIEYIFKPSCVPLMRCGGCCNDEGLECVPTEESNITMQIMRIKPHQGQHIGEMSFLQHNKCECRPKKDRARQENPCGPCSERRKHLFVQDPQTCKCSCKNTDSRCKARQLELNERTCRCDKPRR

**Q.** How did the HUAEC cell proliferation induced by 2 ng/ml VEGF165 (crystal violet, OD 595 nm) turn out when “C-terminal fragment of the NOV protein (amino acids 188 to 357) (from UniProt P48745 188-357)” was run?
**A.** Its HUAEC cell proliferation induced by 2 ng/ml VEGF165 (crystal violet, OD 595 nm) is 200 ng/mL.

Source: patent US20070059314A1
